The values that follow come from paper PMC7337904.

The target of data set [1] is AvaII restriction endonuclease (Anabaena variabilis). The data set is described as follows: crystal structure; three crystal forms: AvaII alone, with partially cleaved dsDNA, and with RNA/DNA heteroduplex; protein in 50 mM Tris-HCl pH 7.4, 0.2 M NaCl, 5 mM CaCl2, 1 mM DTT, 5% glycerol; sitting drops at 18°C.
Data set [2] deals with AvaII restriction endonuclease (wild type) (UniProt Q8YYB7). The data set is described as follows: EMSA. The conditions noted are these: EMSA: 20 mM Tris-acetate pH 7.9, 50 mM K-acetate, 10 mM CaCl2 (replacing Mg-acetate), 1 mg/ml BSA, 37 C 30 min; 10 pmol duplex; 8% native PAGE in TBE or TB + …. (In general: A gel shift assay detects complexes by their altered migration in electrophoresis.)

As to AvaII restriction endonuclease (enzyme), the stoichiometry N in data set [1] is 2.
As for “41-nt RNA/DNA heteroduplex, GGACC in RNA or DNA strand”, in data set [2], the binding signal (fold weaker than dsDNA) is 100.

Broadly, the stoichiometry N is the number of molecules, sites or subunits per partner or assembly.
